Experimental data reported in the supplement of paper PMC10567573.

B1: PLAGL1 (parent)
chain: EKPPSGTKEKKHQCDHCERCFYTR
B2: RIPK4 (parent)
chain: AAWQGHLPIVKLLAKQPGVSVNAQ

Variants of: B1
Test: protein stability index of a GFP-peptide fusion (GPS, HEK-293T) (PSI 1-6); higher = more stable
Settings: c terminus: a fixed tail appended
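Note: lentivirally expressed fusions sorted by FACS into six bins by GFP to DsRed ratio, PSI derived from sequencing read proportions per bin multiplied by bin number.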

Protein stability index of substitutions, site by site:
G6: D 3.88 | K 3.52 | R 3.07
H16: S 4.13 | F 3.5 | R 3.49 | G 4.67 | M 3.66 | I 2.76 | A 4.15
F21: P 3.75 | V 3.95 | K 4.39 | C 3.88 | Y 4.37 | I 4.52 | S 4.22
C17: I 3.49 | G 3.43 | K 4.07 | E 3.69 | M 3.63 | T 3.48
T23: E 5.09 | P 3.64 | W 4.12 | I 4.03 | S 3.79 | V 4.11
C14: R 3.97 | L 4.19 | T 3.8 | W 3.4 | M 4.11 | V 4.55
D15: R 2.2 | V 2.68 | A 3.75 | S 3.29 | F 2.79 | E 3.18 | G 4.38 | Y 2.97 | W 3.15
K8: V 3.9 | H 3.88 | A 3.37 | F 2.9 | P 4.25 | C 4.24 | R 3.48 | D 4.33 | N 3.77 | Y 3.47 | L 3.04 | I 3.1 | Q 4.78
K11: T 3.84 | H 4.06 | I 3.71 | L 3.97 | D 4.99 | E 4.6 | N 3.63 | Y 3.81
E9: R 2.52 | N 3.25
K2: H 3.65 | F 3.44 | Y 3.17 | C 3.62
R19: V 3.39 | F 3.69 | D 4.91 | S 3.9 | W 3.29
E18: C 2.69 | A 3.18 | K 2.58 | W 3.41 | H 3.33
P3: G 3.63 | I 3.58 | N 3.94 | Q 3.8 | C 3.98 | Y 3.5
P4: M 3.45 | C 3.74 | L 3.28 | G 3.99 | A 3.79 | E 3.88 | K 3.53 | T 3.44 | Q 3.48
C20: R 1.98 | Q 2.37 | G 2.5 | N 2.6 | W 2.35 | A 2.48 | D 2.59 | M 2.23 | T 3.04 | E 3.37 | F 2.56 | P 3.07 | K 3.58
S5: D 4.16 | T 3.34 | M 3.48 | F 3.19 | N 3.79 | H 3.83 | W 3.1 | Q 3.42 | I 3.97
H12: T 3.24 | C 4.59 | K 3.55 | L 2.55 | F 2.39 | Y 2.15
E1: D 3.99 | N 3.59 | V 3.57 | A 3.43 | I 2.82 | L 3.62 | F 2.75 | H 3.54 | P 3.22
Q13: N 3.74 | M 3.55 | E 4.31 | G 2.34 | L 3.26 | C 3.19 | I 3.21 | T 3.29 | S 3.25
K10: I 3.77 | H 4.05 | N 3.76 | E 4.42 | V 3.9 | S 3.96 | D 4.05 | P 4.16 | F 3.42 | T 3.78 | M 3.76 | A 3.87
R24: N 4.55 | E 4.67 | H 4.67 | K 4.74 | W 4.29 | F 4.35 | A 4.68
T7: K 3.28 | M 3.56 | E 3.79 | Y 3.27 | F 3.91
Y22: V 3.69 | K 4.45 | L 4.35 | A 4.25 | M 4.37

Variants of: B2
Test: as above
Settings: c terminus: a fixed tail appended

Protein stability index, by site and new letter:
I9: C 3.1 | A 3.49 | H 2.47 | E 2.55 | Y 2.45 | V 2.64 | N 1.79 | F 2.36 | G 2.14 | S 2.83 | T 3.02 | W 2.63 | P 3.45 | Q 2.78
G5: A 2.02 | I 1.81 | K 1.97 | S 2.2 | L 1.52 | R 2.36 | V 2.58 | M 2.37 | W 1.71 | P 2.56 | T 2.69 | D 2.94 | E 2.83 | Q 2.44 | C 2.69 | N 3.7 | H 1.86 | Y 2.89
Q4: W 1.61 | N 2.06 | R 1.89 | H 3.18 | L 1.32 | P 3.34 | I 1.34 | Y 1.51 | A 1.93 | S 2.18 | D 2.62 | V 1.7 | E 2.45 | C 3.15 | M 1.94 | T 2.65 | F 1.24 | G 2.56
L7: I 2.76 | C 2.21 | S 2.8 | N 3.36 | W 1.81 | D 3.03 | P 3.21 | Q 3.55 | M 2.33 | T 2.29 | V 2.65 | F 2.71 | G 3.01 | E 3.31 | Y 2.05 | R 5.04 | A 2.1
K11: A 1.76 | E 3.62 | C 3.38
W3: V 2.49 | F 2.97 | G 2.91 | H 3.06 | N 3.29 | T 3.56 | A 3.2 | Q 3.5 | K 3.21 | R 2.98 | D 3.85 | Y 2.42 | P 3.82 | L 2.42 | I 3.07 | C 3.78 | S 3.65 | M 3.88 | E 3.63
P8: F 3.42 | N 1.78 | S 1.78 | Q 1.85 | A 1.63 | H 2.08 | K 1.07 | C 3.63 | D 2.25 | G 1.8
A1: E 2.24 | G 1.34 | D 3.41 | M 1.98 | K 2.25 | S 2.56 | H 2.77 | N 2.35 | F 3.12 | I 1.95 | P 2.81 | L 1.05 | C 2.18 | T 2.22
H6: L 1.45 | P 2.67 | S 1.84 | Y 1.1 | E 2.81 | Q 2.76 | D 2.98 | I 2.65 | N 2.2 | M 1.86 | V 4 | F 1.41 | T 2.32 | A 2.54
A2: E 2.69 | Y 2.12 | R 2.72 | T 3.11 | I 1.66 | P 3.69 | F 2.15 | D 3.76 | S 2.25 | Q 2.62 | L 2.38 | N 3.16 | H 2.8 | C 2.19 | G 2.27 | K 2.37 | M 2.73
V10: L 1.61 | D 2.74 | I 1.92 | F 2.16 | S 2.72 | E 3.71 | W 3.69 | N 2.1 | A 2.33 | Q 2.56 | T 2.78 | M 2.64 | R 2.37 | P 2.75 | G 2.36 | H 2.34 | Y 3.72 | C 2.38 | K 2.23
